Laboratory results: US20230374502A1

Molecular target: SpCas9 (Streptococcus pyogenes Cas9) (Streptococcus pyogenes) (UniProt Q99ZW2)
Assay: cell-based or functional assay

**Q.** Which results are given for “Acx105 (AcrIIA4, wild type; AcrIIA4_lmo)”?
**A.** indel frequency (TIDE), OFF - R1, sample E2A-F2A - Acx-105: 1%; indel frequency (TIDE), OFF - R1, sample EMCV IRESV5: 6.6%; indel frequency (TIDE), OFF - R1, sample EMCV IRESV10: 5%; indel frequency (TIDE), OFF - R1, sample EMCV IRESV15: 15.8%; indel frequency (TIDE), OFF - R1, sample EMCV IRESV21: 12.2%; indel frequency (TIDE), OFF - R1, sample EMCV WT IRES: 2.3%; indel frequency (TIDE), OFF - R1, sample F2A - Acx-105: 0.8%; indel frequency (TIDE), OFF - R1, sample T2A - Acx-105: 1.3%; indel frequency (TIDE), OFF - R1, sample T2A-E2A-F2A - Acx-105: 0.7%; indel frequency (TIDE), ON - R1, sample E2A-F2A - Acx-105: 2.7%; indel frequency (TIDE), ON - R1, sample EMCV IRESV5: 12.5%; indel frequency (TIDE), ON - R1, sample EMCV IRESV10: 26.5%; indel frequency (TIDE), ON - R1, sample EMCV IRESV15: 54.3%; indel frequency (TIDE), ON - R1, sample EMCV IRESV21: 50%; indel frequency (TIDE), ON - R1, sample EMCV WT IRES: 1.2%; indel frequency (TIDE), ON - R1, sample F2A - Acx-105: 1.2%; indel frequency (TIDE), ON - R1, sample T2A - Acx-105: 3.4%; indel frequency (TIDE), ON - R1, sample T2A-E2A-F2A - Acx-105: 4.5%; indel frequency, OFF - R1, Acr start codon ACG: 13.5%; indel frequency, OFF - R1, Acr start codon AUA: 9.8%; indel frequency, OFF - R1, Acr start codon AUG: 1.4%; indel frequency, OFF - R1, Acr start codon CUG: 7.8%; indel frequency, OFF - R1, Acr start codon GUG: 9.5%; indel frequency, OFF - R1, Acr start codon UUG: 11.7%; indel frequency, ON - R1, Acr start codon ACG: 32.5%; indel frequency, ON - R1, Acr start codon AUA: 25.4%; indel frequency, ON - R1, Acr start codon AUG: 5.6%; indel frequency, ON - R1, Acr start codon CUG: 22.3%; indel frequency, ON - R1, Acr start codon GUG: 26.3%; indel frequency, ON - R1, Acr start codon UUG: 27%; inhibition of OFF target editing, Acr start codon CUG: 50%; inhibition of ON target editing, Acr start codon CUG: 36%; reduction of SpCas9 editing, Acr start codon AUG: > 80%

**Q.** With Acx137 (AcrVA1, wild type; AcrVA1_mbo) as the substance, how does the indel frequency (TIDE), OFF - R1, sample EMCV WT IRES - Acx137 read?
**A.** 7.9%

**Q.** And the indel frequency (TIDE), OFF - R1, sample T2A - Acx -137?
**A.** 11%

**Q.** And the indel frequency (TIDE), ON - R1, sample EMCV WT IRES - Acx137?
**A.** 38.8%

**Q.** And the indel frequency (TIDE), ON - R1, sample T2A - Acx -137?
**A.** 40.3%
